# From the nanobody polyreactivity screen of Harvey et al. (2022)
# Experiment: yeast display, Sf9 membrane polyspecificity reagent, FACS + sequencing; frameworks hold sequencing errors
# Method in brief: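 Galactose-induced (36–48 hours) yeast carrying a synthetic nanobody display library were exposed to 10% biotinylated, detergent-solubilized Sf9 membrane reagent at 4 °C for 1 hour. FACS followed streptavidin microbead enrichment, using low and high (top ~1%) gates for expression (anti-HA) and reagent binding (streptavidin). Colony PCR, MiSeq 2 × 250 sequencing and CDR-length filtering followed. Labels for polyreactivity reflect the gate of origin.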
row,Sequence,polyreactivity (PSR sort gate)
1,QVQLVESGGGLVQAGGSLRLSSAASGSTFPVNARGCYRQAPGKERELVAAISSRGSSTYYADSVKGRFTISRDNAKNTVYLQMHSLNREDTAVYYCAAQQRFPRFYYWGEGTQVTVSS,high polyreactivity
2,QVQLVESGGGLVQAGGSLRLSSAASGSTFPYNAMGWYRQAPGKARELVAAITSRGGSTYYADSVKGRFTISRDNAKNTVYLQMNSLKPEDTAVYYCATPGDTYGWTRRRYYYWGQGTQVTVSS,high polyreactivity
3,QVQLVESGGGLVQAGGSLRLSSAASGSTFQIYTMGWSRQAPGKESELVAAITNGGGSTYYADSVKGRFTISRDNAKNTVYLQMNSLKPEDTAVYYCAAEQRYPLIILYDDWGQGTQVTVSS,low polyreactivity
4,QVQLVESGGGLVQAGGSLRLSSAASGSTFRGNAMGWYRQAPGKERELVAAITGRGGRTYYADSVKGRFTISRDNAKNTVYLQMNSLKPEDTAVYYCAAYSRYKPYGITAYDYWGLGTQVTVSS,high polyreactivity
5,QVQLVESGGGLVQAGGSLRLSSAASGSTFRYYTMGWYRPAPGKERELVADITIGGSTYYADSVKGRFTISRDNAKNTVYLQMNSLKPEDSAVYYCAARSTGGRIFATGVAYDYWGQGTQVTVSS,low polyreactivity
6,QVQLVESGGGLVQAGGSLRLSSAASGSTFTSYAMGWYRQAPGKERELVAAINYSGGSTYYADSVKGRFTISRDNAKNNVYLQMNILKQEDTAVYDCAADGYIRQYVTYYYWGQGTQVTVSS,low polyreactivity
7,QVQLVESGGGLVQAGGSLRLSSAASGSTFTSYAMGWYRQAPGKEREVVSTITGRGGSTSYSDSVKGRFTISRDNAKNTVYLQMNSLKPEDTAVYYCAKRVVVWYFGTGDYWGQGTKVTVSS,low polyreactivity
8,QVQLVESGGGLVQAGGSLRLSSAASGSTFYRYAMGWYRQAPGKERELVAAISRSGGNTFYADSVKGRFTISRDNAKNTVYLQMNSLKPEDTAVYYCAALRSWYGQTSGMDYWGQGTQVTVSS,high polyreactivity
9,QVQLVESGGGLVQAGGSLRLSSAASGSTLVIYAMGWYRQAPGIERQLVAAIDANTGSTYYADSVKGRFTISLDNAKNTDYLQMNSLKPEDTAVYYCNAQVYLPTAYDYWGQGTLVTVSS,low polyreactivity
10,QVQLVESGGGLVQAGGSLRLSSAASGSTSFQNAMGWYRQATGKEREFVAAISGSGDRTNYADSVKGRFTISRDNAMYTVYVQMNSLKPEDTAVYYCAAVRGYPPSNYYYWGQGTQVTVSS,high polyreactivity
11,QVQLVESGGGLVQAGGSLRLSSAASGSTYDFKAMGWNRQAHGKERELFAAITGSGGSTDNADSVKGRFTISRDNAKNSVYLQMNSLKPEDTAVYYCNAGKTFDYRDGVGYDHWGQGTQVTVSS,low polyreactivity
12,QVQLVESGGGLVQAGGSLRLSSAASGYIFTYYTMGCSRQAPGKERELVAAITYSGSRTRYADSVKGRFTISRDNAKNTVYLQMNSLKPEDNAVYYCAAVYRLKSGGEWRDSQFGYWGQGTQVTVSS,high polyreactivity
13,QVQLVESGGGLVQAGGSLRLSSAGSGSIFTGYAMGWYRPAPGKERELVAAIRTRGGSTYYADSVKGRFTISRDNAKNTVYLQMNSLKPEDNAVYYCANRYFGWYGNFDDWGQGTQVTVSS,high polyreactivity
14,QVQLVESGGGLVQAGGSLRLSSASSGFTFSYYAMGWSRPAPGKERELVAAITSDGGRTYYADSVKGRFTISRDNAKNTVYLQMNSLKPEDTAVYYCAARTRYRGIKGYNYWGQGTQVTVSS,high polyreactivity
15,QVQLVESGGGLVQAGGSLRLSSASSGSIFYVYAMGWYRQAPGKERELVAAIYSGASTYYADSVKGRFTISRDNAKNSVYLQMNSLKPEDTAVYYCADERYFYEYDYWGQGTQVTVSS,low polyreactivity
16,QVQLVESGGGLVQAGGSLRLSSDASGSIFHTYAMGWYRQAPGKERELVAAITVSGGDTYYADSVKGRFTISRDNAKNTVYLQKISLKAEDTAVYYCAVDTTTSYTVEYDYWGQGTQVTVSS,low polyreactivity
17,QVQLVESGGGLVQAGGSLRLSSPASGRTFPGNPMGWYRQAPGKLRELVAAITRVRSTYYADSVKGRFTISRDNAKNTVYLQMNWLKPEDTVVYYCAADRLEGSYEDDATGFDDWGQGTQVTVSS,low polyreactivity
18,QVQLVESGGGLVQAGGSLRLSSSASGSTFWYYVRGRYRQAPGKERELVAAISTRGDSTYYADSVKGRFTISRDNAKNSVYLQINSLKPEDTAVYYCAKSRQSSGRVRFDYWGQGTEVTVSS,low polyreactivity
19,QVQLVESGGGLVQAGGSLRLSTAASGSTLWYNDMGWFRKAPGKERELVASITSDGGSSTYADSVKGRFTISRDNEKNTVYLQMNSLKPEDTAVYYCAADWPIVQYDYWGQGTQVTVSS,low polyreactivity
20,QVQLVESGGGLVQAGGSLRLSWAASGFIFPYNAMGWYRQAPGKERELVAVISSSGGDTYYADSVKGRFTISRDNAKNTVYLQMNSLIPVDTAVYYCAADSYYGYEYWGQGTQVTVSS,low polyreactivity
21,QVQLVESGGGLVQAGGSLRLSWAASGGNFEYNAMGWYRQAPGKERELVAAITNGGSTNYADSVKGRFSISRDNAKNTVYIQMNSLKPDDTAVYYCATVFFVLPPTRFASWGQGTQVTVSS,low polyreactivity

row,Sequence,polyreactivity (PSR sort gate)
1,QVQLVESGGGLVQAGGSLRLSWAASGRTFDYNAMGWYRQAPGKERELVAAITSSGGSTYYADSVKGRFTISRDNAKNTVYLQMNSLKPEDTAVYYCDTDGQSPYYIYYWGQGTQVTVSS,low polyreactivity
2,QVQLVESGGGLVQAGGSLRLSWAASGSIFGLNALGWYRQAPGKERELVADITSGGGNTYSADSVKGRFTISRDNAKNTVYLQMNSLKPEDTAVYYCNADYDLYFSGWYDYWGQGTQVTVSS,low polyreactivity
3,QVQLVESGGGLVQAGGSLRLSWAASGSIFTLNAMGWYRQAPGKERELVAAIRWSGGSTYYADSVKGRFTISRDNAKNTGYLQRNRLKPEDTAVYYCAAKYPSDYYSPGFKYWGQGTQVTVSS,high polyreactivity
4,QVQLVESGGGLVQAGGSLRLSWAASGSKSCADVMGWYRPEPGKERELLAAISSGTSTYYADSVKGRFTISRDNAKNTVYLQMNSLKPEDTGVYYCAAYYYSYPTNGGYGYCGQGTQVTVSS,low polyreactivity
5,QVQLVESGGGLVQAGGSLRLSWAASGSSFGYAMGWYRQGPGKERELVAAISFSGVSTYYADSVKGRFTISRDNAKHTVYLQMNSLKPEDTAVYYCNAYSDGDEDYWGQGTQVTVSS,low polyreactivity
6,QVQLVESGGGLVQAGGSLRLSWAASGSTFVHNAMGWYIQAPGKERELVAGISRTGGSTYYADSVKGRFTISRDNAKNTVYLQMNSLKPEDTAVYYCAVRYPRSWQFDYWGQGTQVNVSS,high polyreactivity
7,QVQLVESGGGLVQAGGSLRLSWAASGSTLLSNAMGWSTQAPGKERELVAAINYSGGRTYYADSVKGRFTISRDHAQNTVYLQMNSLKPEDTAVYYCNALSSGHGSSSRYDYWGQGTQVTVSS,low polyreactivity
8,QVQLVESGGGLVQAGGSLRLSYAASGSTFRVYAMGWYRQAPGKERELVAAISRSGGRTYYADSVKGRFTISRDNAKNTVYLQMNSLKPEDTAVYYCAADYKYTAVSDDYWGQGTQVTVSS,high polyreactivity
9,QVQLVESGGGLVQAGGSLRLSYAPSGRTFGYYAMGWYRQAPGKERELVAAIRSTGSTNYADSVKGRFTISRDNAKNTVYLQMNRLKPEDTAVYYCNAKRRFRYDYWGQGTQVTVSS,low polyreactivity
10,QVQLVESGGGLVQAGGSLRLTCAASAFIYRRNAMGSYRQAPGKERELVAAITGGGGSTYYADSVKGSFTISRDNAKNTVYLQMNSLKPEDTAVYYCAVDLSRLYNRGGDYWGQGTQVTVSS,high polyreactivity
11,QVQLVESGGGLVQAGGSLRLTCAASARTFFRNTMGSYRQATGKERELVATISWSGGSTNSADSVKGRFTISRDNAKNTVSLQMNSLKPEDTAVYYCAAVDYDTSIYDRPGGFDYWGQGTQVTVSS,low polyreactivity
12,QVQLVESGGGLVQAGGSLRLTCAASGFIFKIYARGWYRQAPGKERELVARITRSGGSTYYADSVKGRFTISRDNAKNTVYLQMNSLKPEDTAVYSCNAELFRYVRYDYWGQGTQVTVSS,high polyreactivity
13,QVQLVESGGGLVQAGGSLRLTCAASGFIFQYYAMGWYRQAPGKEREFVAAISSSGTSTYYADSVKGRFTISRDNAKNTVYLQMNSLKPEDTAVYYCAAREAGLYWLYYPGLRYYYWGQGTQVTVSS,high polyreactivity
14,QVQLVESGGGLVQAGGSLRLTCAASGFIFRSYAMGWYRQAPGKERELVAAINSRAGNTYYADSVKGRFTISRDNAKNTVYLQMNSLKPEDTAVYYCAVRSYSPRSRGMGYWGQGTQVTVSS,high polyreactivity
15,QVQLVESGGGLVQAGGSLRLTCAASGFTFGVYAMGWYRQAPGKERELVAAIDDGTNTYYADSVKGRFTISRDNAKNTVYLQMNSLKPEDTAVYYCNADDPYYIAEQSWSESDYWGQGTQVTVSS,low polyreactivity
16,QVQLVESGGGLVQAGGSLRLTCAASGFTFSGYAMGWYRQAPGKERELVAAISSSGASTYYADSVKGRFRISRDNAKYTVYLQMNSLNPEDTAVYYCNTLYYFPYLWPYDYWGQGTQVTVSS,high polyreactivity
17,QVQLVESGGGLVQAGGSLRLTCAASGFTLDVNAMGWYRQAPGKERELVATISWGGASTYYADSVKGRFTISRDNAKNTVYLQMNSLKPEDTAVYYCAAQYYYPDDKGGYDYWGQGTQVTVSS,low polyreactivity
18,QVQLVESGGGLVQAGGSLRLTCAASGGTFVYNAMGWYRKAPGKERELVAAISRGGTRTYYADSVKGRFTISRDNAKNTVYLQMNSLKPEDTAVYYCNAEVNTNYRIADYDYWGQGTQVTVSS,high polyreactivity
19,QVQLVESGGGLVQAGGSLRLTCAASGGTLRYYGMGWYRQAPGKEWEFVAAISWSGDSTYYADSVKGRFTISRDNAKTTVYLQMNSLKPEDTAVYFCAATYYLTYYYGQANHGYDYWGQGTQVTVSS,low polyreactivity
20,QVQLVESGGGLVQAGGSLRLTCAASGINCVWYAMGWYRQAPGKERELVAAIRSGGITNYADSVKGRFTISRDNAQNTVYLQMNSLKPEDTAVYYCAAPYRTDTGDDYWGQGTQVTLSS,low polyreactivity
